3 molecules from patent US20200332015A1 (NAMAB THERAPEUTICS, published 2020) can be followed below.

What all share (test): SPR T200, antigen-Fc captured, molecule as analyte
For assay [1], the target named is T1, mouse Fc-tagged mouse CD137 (R&D Systems, cat. 937-4B-050) (mouse, UniProt P20334 24-187).
T1 construct: also called mouse CD137-Fc chimeric protein
T1 sequence (looked up): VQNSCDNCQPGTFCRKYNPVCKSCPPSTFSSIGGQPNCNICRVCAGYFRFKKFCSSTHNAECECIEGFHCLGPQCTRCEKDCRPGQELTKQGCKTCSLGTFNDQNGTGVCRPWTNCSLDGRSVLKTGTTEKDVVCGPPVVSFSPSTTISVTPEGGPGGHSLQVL
Here is the method: (§1) Affinity to PDL1 of the different species was determined by SPR measurements using a Biacore T200 device (GE Healthcare). An antibody specific for the Fc region of human IgGs was immobilized on a sensor chip (CM5 sensor chip, GE Healthcare) by amine-coupling. For all formats, with the exception of the Fc containing Morrison formats, PDL1-Fc chimeric protein from different species were captured by the immobilized antibody. Three-fold serial dilutions of the molecules specific for PDL1 (0.12-90 nM) were injected into the flow cells for three minutes and dissociation was monitored for 10 minutes. After each injection cycle, surfaces were regenerated with one injection of a 3 M MgCl₂ solution. The apparent dissociation (kd) and association (kₐ) rate constants and the apparent dissociation equilibrium constant (KD) were calculated using one-to-one Langmuir binding model. Affinity to CD137 of the different species was determined using the identical setup as for PDL1 with the exception that CD137-Fc chimeric proteins from different species were captured by the immobilized antibody.

For assay [2], the target named is T2, Fc tagged human CD137 (R&D Systems, cat. 838-4B-100) (human, UniProt Q07011 24-186).
T2 construct: also called CD137 Fc chimera; human CD137-Fc chimeric protein
Here is the method: as §1

For assay [3], the target named is human PDL1-Fc chimeric protein (human, UniProt Q9NZQ7 19-238, limits assumed). Here is the method:
as §1

B1: PRO1125 (38-02-A04 scDb-i/33_03_G02 sc02 IF scDb-o) (bispecific antibody)
chain: DIQMTQSPSSLSASVGDRVTITCQASQSINDYLAWYQQKPGKSPKLLIYKASTLASGVPSRFSGSGSGTDFTLTISSLQPEDFATYYCQQGYIITDIDNVFGTGTKVTVLGGGGGSQVQLQESGPGLVKPSETLSLTCKVSGFSFSNSYWICWIRQPPGKGLEWIGCTFVGSSDSTYYANWAKGRVTISVDSSKNQFSLKLSSVTAADTAVYYCARHPSDAVYGYANNLWGQGTLVTVSSGGGGSGGGGSGGGGSGGGGSIQMTQSPSSLSASVGDRVTITCQASQSINNVLAWYQQKPGKAPKLLIYRASTLASGVPSRFSGSGSGTDFTLTISSLQPEDFATYYCQSSYGNYGDFGTGTKVTVLGGGGGSQVQLQESGPGLVKPSETLSLTCKVSGFSFSSGYDMCWVRQPPGKGLEWIACVVAGSVDITYYASWAKGRVTISVDSSKNQFSLKLSSVTAADTAVYFCARKDAYSDAFNLWGQGTLVTVSS
notes: scDb
The term Kd denotes the constant that tells how readily two partners part at equilibrium. Usually koff stands for a measure of how fast the partners let go of each other. A low value points to slow dissociation. In general, kon refers to a measure of how fast the partners come together. Turning to B1, the dissociation constant Kd in assay [1] was found to be 510 nM; in assay [2] it was 3.7 nM; in assay [3], 0.067 nM. Further, the koff was found to be 0.27 s⁻¹ in assay [1], 0.00075 s⁻¹ in assay [2] and 0.00011 s⁻¹ in assay [3]. Further, the kon in assay [1] amounted to 540000 M⁻¹ s⁻¹; in assay [2], 200000 M⁻¹ s⁻¹; in assay [3] it was 1.7e+06 M⁻¹ s⁻¹.

B2: PRO1134 (38-02-A04 sc01 scDb-i/33_03_G02 sc07 GL VH3 scDb-o) (bispecific antibody)
chain: DIQMTQSPSSLSASVGDAVTITCQASQSINDYLAWYQQKPGKSPKLLIYKASTLASGVPSRFSGSGSGTDFTLTISSLQPEDFATYYCQQGYIITDIDNVFGTGTKVTVLGGGGGSQVQLQESGPGLVKPSETLSLTCKVSGFSFSNSYWICWIRQPPGKGLEWIGCTFVGSSDSTYYANWAKGRVTISVDSSKNQFSLKLSSVTAADTAVYYCARHPSDAVYGYANNLWGQGTLVTVSSGGGGSGGGGSGGGGSGGGGSIQMTQSPSSLSASVGDRVTITCQASQSINNVLAWYQQKPGKAPKLLIYRASTLASGVPSRFSGSGSGTDFTLTISSLQPEDFATYYCQSSYGNYGDFGTGTKVTVLGGGGGSEVQLVESGGGLVQPGGSLRLSCAASGFSFSSGYDMCWVRQAPGKGLEWVGCVVAGSVDITYYASWAKGRFTISRDNSKNTVYLQMNSLRAEDTATYYCARKDAYSDAFNLWGPGTLVTVSS
notes: scDb
On to B2, for which the Kd in assay [1] was determined as 420 nM; in assay [2], 3.4 nM; in assay [3], 0.028 nM. The koff in assay [1] amounted to 0.19 s⁻¹; in assay [2] it was 0.00084 s⁻¹; in assay [3], 7.6e-05 s⁻¹. The kon turned out to be 450000 M⁻¹ s⁻¹ in assay [1], 250000 M⁻¹ s⁻¹ in assay [2] and 2.8e+06 M⁻¹ s⁻¹ in assay [3].

B3: PRO966 (= PRO1052) (38_27_C05 sc01 scDb-i/33-03-G02 sc01 scDb-o/19-01-H04-sc03 scFv) (other)
chain: DIQMTQSPSSLSASVGDRVTITCQASQSINDYLAWYQQKPGKAPKLLIYKASTLASGVPSRFSGSGSGTDFTLTISSLQPEDFATYYCQQGYIITDIDNVFGTGTKVTVLGGGGGSQVQLQESGPGLVKPSETLSLTCKVSGFSFNNDYDMCWIRQPPGKGLEWIGCIDTGDGSTYYASWAKGRVTISVDSSKNQFSLKLSSVTAADTAVYYCAREAASSSGYGMGYFDLWGQGTLVTVSSGGGGSGGGGSGGGGSGGGGSIQMTQSPSSLSASVGDRVTITCQSSQSVYDNNWLAWYQQKPGKAPKLLIYRASNLASGVPSRFSGSGSGTDFTLTISSLQPEDFATYYCQGTYLSSNWYWAFGTGTKVTVLGGGGGSQVQLQESGPGLVKPSETLSLTCKVSGFSFSSGYDMCWIRQPPGKGLEWIGCVVAGSVDITYYASWAKGRVTISVDSSKNQFSLKLSSVTAADTAVYYCARKDAYSDAFNLWGQGTLVTVSSGGGGSGGGGSIQMTQSPSSLSASVGDRVTITCQSSESVYSNNQLSWYQQKPGQPPKLLIYDASDLASGVPSRFSGSGSGTDFTLTISSLQPEDFATYYCAGGFSSSSDTAFGGGTKLTVLGGGGGSGGGGSGGGGSGGGGSEVQLVESGGGLVQPGGSLRLSCAASGFSLSSNAMGWVRQAPGKGLEYIGIISVGGFTYYASWAKGRFTISRDNSKNTVYLQMNSLRAEDTATYFCARDRHGGDSSGAFYLWGQGTLVTVSS
notes: Trispecific scDb-scFv
For the molecule B3, in assay [2], the affinity, expressed as Kd, was 2.2 nM; the koff came out at 0.0022 s⁻¹; the kon stood at 1e+06 M⁻¹ s⁻¹. In assay [3], this molecule came in with a Kd of 0.083 nM, a koff of 0.00014 s⁻¹ and an on-rate (kon) of 1.6e+06 M⁻¹ s⁻¹.
